The nature of data set [1]: Pharmacokinetic study, single IV dose in rats, plasma concentrations, noncompartmental analysis. To be noted: for AUCINF / CL / Cmax / MRTlast / T½ / Vss: non-released PEG-BNP (or native BNP), equivalent protein mass 0.459 mg/kg IV, Sprague Dawley rats.
Method: (§1) Thirty one (31) adult male Sprague-Dawley rats with indwelling jugular vein and carotid artery catheters (JVC/CAC) (Charles River Labs, Hollister, Calif.) were utilized for this study. […] All animals were food fasted overnight. Prior to dosing, the rats were weighed, the tails and cage cards were labeled for identification and the doses were calculated. Anesthesia was induced and maintained with 3.0-5.0% isoflurane. The JVC and CAC were externalized and flushed with HEP/saline (10 IU/mL HEP/mL saline). The predose sample was collected from the JVC and the catheters were plugged, and labeled to identify the jugular vein and carotid artery. When all of the animals had recovered from anesthesia and the predose samples were processed, the animals were dosed, intravenously (IV) via the JVC using a 1 mL syringe containing the appropriate test article and the dead volume of the catheter was flushed with 0.9% saline to ensure the animals received the correct dose.
(§2) Following a single IV dose, blood samples were collected from groups 1A, 2A, 3A and 4A, at 0 (pre-dose collected as described above), 0.03, 0.33, 2.0, 6.0, 12.0 and 72.0 hours and from Groups 1B, 2B, 3B and 4B at 0 (pre-dose collected as described above), 0.17, 1.0, 4.0, 8.0, 24.0 and 48.0 hours via the carotid artery catheter and processed as stated in the protocol. Following the last collection point, the animals were euthanized.
(§3) Concentrations in plasma that were below LLOQ were replaced with zeros prior to generating Tables and PK analysis. In the event that more than half (>50%) of the data points were below zero, mean concentration will not be shown in the figures or used in PK parameters estimation. The following PK parameters were estimated using plasma concentration-time profile of each animal:
(§4) C0 Extrapolated concentration to time “zero” Cmax Maximum (peak) concentration AUCall Area under the concentration-time from zero to time of last concentration value T1/2(Z) Terminal elimination half-life AUCinf Area under the concentration-time from zero to time infinity Tmax Time to reach maximum or peak concentration following administration CL Total body clearance Vz Volume of distribution based on terminal phase Vss Volume of distribution at steady state MRTlast Mean residence time to last observable concentration
The conditions of data set [2]: rat, in vivo, iv.
Method: as §1, §2, §3, §4

Entries after “also recorded” stand apart in the source; their conditions may differ.

In the case of `CC[C@H](C)[C@@H]1NC(=O)[C@H](CCCNC(=N)N)NC(=O)[C@H](CC(=O)O)NC(=O)[C@H](CCSC)NC(=O)[C@H](CCCCN)NC(=O)[C@H](CCCNC(=N)N)NC(=O)CNC(=O)[C@H](Cc2ccccc2)NC(=O)[C@@H](NC(=O)CNC(=O)[C@H](CO)NC(=O)CNC(=O)[C@H](CCC(N)=O)NC(=O)[C@@H](NC(=O)[C@H](CCSC)NC(=O)[C@H](CCCCN)NC(=O)[C@@H]2CCCN2C(=O)[C@@H](N)CO)C(C)C)CSSC[C@@H](C(=O)N[C@@H](CCCCN)C(=O)N[C@H](C(=O)N[C@@H](CC(C)C)C(=O)N[C@@H](CCCN=C(N)N)C(=O)N[C@@H](CCCN=C(N)N)C(=O)N[C@@H](Cc2cnc[nH]2)C(=O)O)C(C)C)NC(=O)CNC(=O)[C@H](CC(C)C)NC(=O)CNC(=O)[C@H](CO)NC(=O)[C@H](CO)NC(=O)[C@H](CO)NC(=O)[C@H](CO)NC1=O` [BNP, nesiritide, reference compound], the “measurable BNP in plasma after BNP administration” value in data set [1] (IV, rats, in words) is “No measurable plasma concentrations; also recorded: No BNP was measurable in plasma”.
Usually Cmax stands for the highest concentration seen after dosing. Broadly, the Vss is the apparent volume that relates the amount in the body to the concentration in plasma or blood. Take “ButyrALD-10K-BNP: non-releasable mPEG-Butyr-ALD-10K mono-PEG conjugate of BNP-32, N-terminus directed”: in data set [1], the AUCINF was determined as 96.6 ng·h/mL, the CL amounted to 79.17 mL/min/kg, the maximum concentration (Cmax) was found to be 355 ng/mL and the MRTlast was 0.368 h. Further, in data set [1], the T½ was 0.272 h and the Vss was determined as 2.27 L/kg.
Turning to “ButyrALD-40K-BNP: non-releasable 40 kDa mPEG2-Butyr-ALD mono-PEG conjugate of BNP-32, N-terminus directed”, in data set [1] (IV, rats, in words), the “clearance compared with ButyrALD-10K-BNP” value is given as “lower clearance” and the “half-life compared with ButyrALD-10K-BNP” value is “longer half-life”. Besides, in data set [1], the AUCINF is 41300 ng·h/mL, the CL was determined as 0.185 mL/min/kg, the Cmax was 1410 ng/mL and the MRTlast stood at 24.0 h. Also, in data set [1], the T½ stood at 26.1 h and the volume of distribution (Vss) turned out to be 0.631 L/kg. In data set [2], the “peak plasma concentration compared with ButyrALD-10K-BNP” value is given as “higher peak plasma concentration”.
In the case of “C2-FMOC-PEG2-40K-BNP: releasable mono-PEG conjugate of BNP-32 with mPEG2-C2-fmoc-NHS-40K; hydrolysis generates unmodified peptide”, the “half-life of conjugate in plasma” value in data set [1] (intact C2-FMOC-PEG2-40K-BNP, IV bolus, rats) is 15.0 h. The “peak concentration of conjugate in plasma” value in data set [2] (male, Sprague-Dawley) was 1300 ng/mL. Besides, in data set [2], the “time of peak concentration of released BNP” value came to 0.3 h, the “time plasma conjugate concentrations remained above 100 ng/mL” value is “up to 24 h” and the “time released BNP stayed above 20 ng/mL” value is 8 h.

For the origin of these results see patent US20110206633A1, “POLYMER CONJUGATES OF CD-NP PEPTIDES” (priority 2008, published 2011).
